Here are results for one protein from PMC2908525 (Molecular cell, 2010).

This data set concerns the molecule itself. The data set can be described thus: single-molecule TIRF microscopy of DNA looping.

B1: enhanced green fluorescent protein-MuB fusion (EGFP-MuB) (natural protein, bacteriophage Mu, UniProt P03763 1-312, looked up)
chain: MNISDIRAGLRTLVENEETTFKQIALESGLSTGTISSFINDKYNGDNERVSQMLQRWLEKYHAVAELPEPPRFVETQTVKQIWTSMRFASLTESIAVVCGNPGVGKTEAAREYRRTNNNVWMITITPSCASVLECLTELAFELGMNDAPRRKGPLSRALRRRLEGTQGLVIIDEADHLGAEVLEELRLLQESTRIGLVLMGNHRVYSNMTGGNRTVEFARLFSRIAKRTAINKTKKADVKAIADAWQINGEKELELLQQIAQKPGALRILNHSLRLAAMTAHGKGERVNEDYLRQAFRELDLDVDISTLLRN
On to B1, for which the binding result is on record as “binds”.
